Test results as given in the supplement of paper PMC10899765.

Columns and labels:
Details in all cases: 20 nM; 72 h
MCF10A [1] = assay: percent viability (nuclei count relative to siNT); higher = more viable cells
Method: (§1)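 After 72 h, cells were fixed and stained with Hoechst and anti-fibrillarin, and nucleoli per nucleus were counted with CellProfiler. Values are plate-adjusted percent effect for the one-nucleolus and 5+ nucleoli phenotypes, normalised to siNT (0%) and to the positive controls siNOL11 or siKIF11 (100%), as the mean of biological triplicates. Percent viability is the nuclei count relative to siNT.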

MCF10A [2] = assay: 5+ nucleoli phenotype percent effect (relative to siNT 0% and siKIF11 100%); higher = more cells with five or more nucleoli
Method: as §1

MCF10A [3] = assay: one-nucleolus phenotype percent effect (relative to siNT 0% and siNOL11 100%); higher = more cells with one nucleolus (ribosome biogenesis inhibition)
Method: as §1

Sequence: UCCUGUCUUUCCUUGUUGGAGC [hsa-miR-5699]
- percent viability (MCF10A [1]): 186%
- 5+ nucleoli phenotype percent effect (MCF10A [2]): 51.3%
- one-nucleolus phenotype percent effect (MCF10A [3]): -26.2%

Sequence: UCCUUCAUUCCACCGGAGUCUG [hsa-miR-205-5p]
- percent viability (MCF10A [1]): 67.4%
- 5+ nucleoli phenotype percent effect (MCF10A [2]): -17.6%
- one-nucleolus phenotype percent effect (MCF10A [3]): 21%

Sequence: UCCUUCUGCUCCGUCCCCCAG [hsa-miR-1237-3p]
- percent viability (MCF10A [1]): 52.7%
- 5+ nucleoli phenotype percent effect (MCF10A [2]): 6.7%
- one-nucleolus phenotype percent effect (MCF10A [3]): -0.823%

Sequence: UCCUUUGCCUAUUCUAUUUAAG [hsa-miR-3121-5p]
- percent viability (MCF10A [1]): 56.5%
- 5+ nucleoli phenotype percent effect (MCF10A [2]): 17%
- one-nucleolus phenotype percent effect (MCF10A [3]): -3.46%

Sequence: UCGACAGCACGACACUGCCUUC [hsa-miR-196b-3p]
- percent viability (MCF10A [1]): 65.2%
- 5+ nucleoli phenotype percent effect (MCF10A [2]): 5.68%
- one-nucleolus phenotype percent effect (MCF10A [3]): 2.46%

Sequence: UCGACCGGACCUCGACCGGCU [hsa-miR-1307-5p]
- percent viability (MCF10A [1]): 78.8%
- 5+ nucleoli phenotype percent effect (MCF10A [2]): 13.2%
- one-nucleolus phenotype percent effect (MCF10A [3]): -17.3%

Sequence: UCGAGGACUGGUGGAAGGGCCUU [hsa-miR-3131]
- percent viability (MCF10A [1]): 47.9%
- 5+ nucleoli phenotype percent effect (MCF10A [2]): -6.74%
- one-nucleolus phenotype percent effect (MCF10A [3]): 8.15%

Sequence: UCGAGGAGCUCACAGUCU [hsa-miR-151b]
- percent viability (MCF10A [1]): 57.3%
- 5+ nucleoli phenotype percent effect (MCF10A [2]): 10.8%
- one-nucleolus phenotype percent effect (MCF10A [3]): 11.9%

Sequence: UCGAGGAGCUCACAGUCUAGU [hsa-miR-151a-5p]
- percent viability (MCF10A [1]): 86.8%
- 5+ nucleoli phenotype percent effect (MCF10A [2]): 9.84%
- one-nucleolus phenotype percent effect (MCF10A [3]): -6%

Sequence: UCGCAGACAGGGACACAUGGAGA [hsa-miR-6767-5p]
- percent viability (MCF10A [1]): 39%
- 5+ nucleoli phenotype percent effect (MCF10A [2]): 0.353%
- one-nucleolus phenotype percent effect (MCF10A [3]): -5.76%

Sequence: UCGCCUCCUCCUCUCCC [hsa-miR-1281]
- percent viability (MCF10A [1]): 60.9%
- 5+ nucleoli phenotype percent effect (MCF10A [2]): -24.6%
- one-nucleolus phenotype percent effect (MCF10A [3]): 10.9%

Sequence: UCGCGCCCCGGCUCCCGUUC [hsa-miR-1292-3p]
- percent viability (MCF10A [1]): 64.3%
- 5+ nucleoli phenotype percent effect (MCF10A [2]): 9.03%
- one-nucleolus phenotype percent effect (MCF10A [3]): -6.7%

Sequence: UCGCGGUUUGUGCCAGAUGACG [hsa-miR-579-5p]
- percent viability (MCF10A [1]): 64.6%
- 5+ nucleoli phenotype percent effect (MCF10A [2]): 41.8%
- one-nucleolus phenotype percent effect (MCF10A [3]): -22.2%

Sequence: UCGGAUCCGUCUGAGCUUGGCU [hsa-miR-127-3p]
- percent viability (MCF10A [1]): 41.5%
- 5+ nucleoli phenotype percent effect (MCF10A [2]): -26.8%
- one-nucleolus phenotype percent effect (MCF10A [3]): 14.4%

Sequence: UCGGCCUGACCACCCACCCCAC [hsa-miR-1234-3p]
- percent viability (MCF10A [1]): 75.7%
- 5+ nucleoli phenotype percent effect (MCF10A [2]): 54.9%
- one-nucleolus phenotype percent effect (MCF10A [3]): -20.1%

Sequence: UCGGCCUGGGGAGGAGGAAGGG [hsa-miR-7107-5p]
- percent viability (MCF10A [1]): 77.4%
- 5+ nucleoli phenotype percent effect (MCF10A [2]): 26.1%
- one-nucleolus phenotype percent effect (MCF10A [3]): -28.2%

Sequence: UCGGCUCUCUCCCUCACCCUAG [hsa-miR-6741-3p]
- percent viability (MCF10A [1]): 33.2%
- 5+ nucleoli phenotype percent effect (MCF10A [2]): -4.11%
- one-nucleolus phenotype percent effect (MCF10A [3]): 9.37%

Sequence: UCGGGCCUGGGGUUGGGGGAGC [hsa-miR-6749-5p]
- percent viability (MCF10A [1]): 37.7%
- 5+ nucleoli phenotype percent effect (MCF10A [2]): 21.9%
- one-nucleolus phenotype percent effect (MCF10A [3]): -10.1%

Sequence: UCGGGCGCAAGAGCACUGCAGU [hsa-miR-6499-5p]
- percent viability (MCF10A [1]): 43.5%
- 5+ nucleoli phenotype percent effect (MCF10A [2]): -9.6%
- one-nucleolus phenotype percent effect (MCF10A [3]): 0.719%

Sequence: UCGGGGAGUCUGGGGUCCGGAAU [hsa-miR-6889-5p]
- percent viability (MCF10A [1]): 30.7%
- 5+ nucleoli phenotype percent effect (MCF10A [2]): 3.52%
- one-nucleolus phenotype percent effect (MCF10A [3]): 6.17%

Sequence: UCGGGGAUCAUCAUGUCACGAGA [hsa-miR-542-5p]
- percent viability (MCF10A [1]): 81.9%
- 5+ nucleoli phenotype percent effect (MCF10A [2]): 30.4%
- one-nucleolus phenotype percent effect (MCF10A [3]): 1.02%

Sequence: UCGGGGCAUGGGGGAGGGAGGCUGG [hsa-miR-6775-5p]
- percent viability (MCF10A [1]): 57.8%
- 5+ nucleoli phenotype percent effect (MCF10A [2]): 35.1%
- one-nucleolus phenotype percent effect (MCF10A [3]): -21.8%

Sequence: UCGUACCGUGAGUAAUAAUGCG [hsa-miR-126-3p]
- percent viability (MCF10A [1]): 30.2%
- 5+ nucleoli phenotype percent effect (MCF10A [2]): -0.677%
- one-nucleolus phenotype percent effect (MCF10A [3]): 5.16%

Sequence: UCGUAUCAGAGAUUCCAGACAC [hsa-miR-6506-3p]
- percent viability (MCF10A [1]): 85.1%
- 5+ nucleoli phenotype percent effect (MCF10A [2]): -11.2%
- one-nucleolus phenotype percent effect (MCF10A [3]): 5.43%

Sequence: UCGUGCAUAUAUCUACCACAU [hsa-miR-4536-3p]
- percent viability (MCF10A [1]): 49.3%
- 5+ nucleoli phenotype percent effect (MCF10A [2]): 0.0637%
- one-nucleolus phenotype percent effect (MCF10A [3]): 2.78%

Sequence: UCGUGGCCUGGUCUCCAUUAU [hsa-miR-1204]
- percent viability (MCF10A [1]): 48.3%
- 5+ nucleoli phenotype percent effect (MCF10A [2]): 2.14%
- one-nucleolus phenotype percent effect (MCF10A [3]): -7.25%

Sequence: UCGUGUCCCUCUUGUCCACAG [hsa-miR-6774-3p]
- percent viability (MCF10A [1]): 70%
- 5+ nucleoli phenotype percent effect (MCF10A [2]): 58.8%
- one-nucleolus phenotype percent effect (MCF10A [3]): -27%

Sequence: UCGUGUCUUGUGUUGCAGCCGG [hsa-miR-187-3p]
- percent viability (MCF10A [1]): 87.7%
- 5+ nucleoli phenotype percent effect (MCF10A [2]): -1.49%
- one-nucleolus phenotype percent effect (MCF10A [3]): -7.21%

Sequence: UCGUUUGCCUUUUUCUGCUU [hsa-miR-1282]
- percent viability (MCF10A [1]): 84.2%
- 5+ nucleoli phenotype percent effect (MCF10A [2]): 5.62%
- one-nucleolus phenotype percent effect (MCF10A [3]): -8.15%

Sequence: UCUAAAGACUAGACUUCGCUAUG [hsa-miR-4744]
- percent viability (MCF10A [1]): 106%
- 5+ nucleoli phenotype percent effect (MCF10A [2]): 32%
- one-nucleolus phenotype percent effect (MCF10A [3]): -22%

Sequence: UCUACAAAGGAAAGCGCUUUCU [hsa-miR-1283]
- percent viability (MCF10A [1]): 148%
- 5+ nucleoli phenotype percent effect (MCF10A [2]): 29.7%
- one-nucleolus phenotype percent effect (MCF10A [3]): -26.4%

Sequence: UCUACAGUGCACGUGUCUCCAGU [hsa-miR-139-5p]
- percent viability (MCF10A [1]): 67.5%
- 5+ nucleoli phenotype percent effect (MCF10A [2]): -2.1%
- one-nucleolus phenotype percent effect (MCF10A [3]): -8.78%

Sequence: UCUAGAAAUGCAUGACCCACC [hsa-miR-6508-5p]
- percent viability (MCF10A [1]): 112%
- 5+ nucleoli phenotype percent effect (MCF10A [2]): 17.2%
- one-nucleolus phenotype percent effect (MCF10A [3]): -15.2%

Sequence: UCUAGAGGAAGCACUUUCUGUUU [hsa-miR-520g-5p]
- percent viability (MCF10A [1]): 67.5%
- 5+ nucleoli phenotype percent effect (MCF10A [2]): 34.9%
- one-nucleolus phenotype percent effect (MCF10A [3]): -24.2%

Sequence: UCUAGGCUGGUACUGCUGA [hsa-miR-645]
- percent viability (MCF10A [1]): 59.5%
- 5+ nucleoli phenotype percent effect (MCF10A [2]): 7.45%
- one-nucleolus phenotype percent effect (MCF10A [3]): -11.5%

Sequence: UCUAGUAAGAGUGGCAGUCGA [hsa-miR-628-3p]
- percent viability (MCF10A [1]): 55.8%
- 5+ nucleoli phenotype percent effect (MCF10A [2]): 31.5%
- one-nucleolus phenotype percent effect (MCF10A [3]): -7.59%
